In patent US20260125454A1:
Read-outs that look alike come from different tables or passages of the source.

Assays:
Biotin-huCGRPaSA (human) = experiment: ELISA, supernatant; relative to chimeric C245
[1] = target: synthetic human α-CGRP polypeptide (SEQ ID NO: 97)-NH2 (human); experiment: BLI (Octet), antibody on AHC2, 50 nM CGRP; association pH 7.4, dissociation pH 5.5
[2] = target: synthetic human α-CGRP polypeptide (SEQ ID NO: 97)-NH2 (human); experiment: BLI (Octet), antibody on AHC2, 50 nM CGRP; association pH 7.4, dissociation pH 7.4
[3] = target: synthetic human α-CGRP polypeptide (SEQ ID NO: 97)-NH2 (human); experiment: BLI (Octet), antibody on AHC2, 50 nM CGRP; association pH 5.5, dissociation pH 5.5
CGRP antigen [4] = experiment: cell-based or functional assay
CGRP antigen [5] = experiment: cell-based or functional assay; remark: listed apart in the source
CGRP antigen [6] = experiment: cell-based or functional assay; remark: listed apart in the source

Chain of synthetic human α-CGRP polypeptide (SEQ ID NO: 97)-NH2 (human) (peptide, as listed by the source): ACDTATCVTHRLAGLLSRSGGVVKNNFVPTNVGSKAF
Chain of Biotin-huCGRPaSA (human) (peptide, as listed by the source): as above

B1: hu34 (antibody, V domains shown)
VH: QVQLVQSGAEVKKPGASVKVSCKASGYTFIDFNMHWVRQAPGQRLEWMGYIYPYNGDVVYNQNFTNRVTLTVDTSSSTAYMELSSLRSEDTAVYYCAREGLGGYWGQGTLVTVSS
VL: DIVLTQSPDSLAVSLGERATINCKASQNIDFDGYAYMNWYQHKPGQPPKVLIYSVFNLESGVPDRFSGSGSGTDFTLTISSLQAEDVAVYYCQQSHEVPYTFGQGTKLEIK
Relative binding activity, % (Biotin-huCGRPaSA (human)): 5%

B2: Galcanezumab Analogue (antibody, INN chains, looked up, V domains shown)
VH: QVQLVQSGAEVKKPGSSVKVSCKASGYTFGNYWMQWVRQAPGQGLEWMGAIYEGTGKTVYIQKFADRVTITADKSTSTAYMELSSLRSEDTAVYYCARLSDYVSGFGYWGQGTTVTVSS
VL: DIQMTQSPSSLSASVGDRVTITCRASKDISKYLNWYQQKPGKAPKLLIYYTSGYHSGVPSRFSGSGSGTDFTLTISSLQPEDFATYYCQQGDALPPTFGGGTKVEIK
modifications: in-house analogue
Binding signal (nm) [1]: 0.12 nm | koff [1]: 0.00871 s⁻¹ | Binding signal (nm) [2]: 0.14 nm | koff [2]: 8.36e-05 s⁻¹ | Binding signal (nm) [3]: 0.11 nm | koff [3]: 0.000251 s⁻¹

B3: fremanezumab from Teva (antibody, INN chains, looked up, V domains shown)
VH: EVQLVESGGGLVQPGGSLRLSCAASGFTFSNYWISWVRQAPGKGLEWVAEIRSESDASATHYAEAVKGRFTISRDNAKNSLYLQMNSLRAEDTAVYYCLAYFDYGLAIQNYWGQGTLVTVSS
VL: EIVLTQSPATLSLSPGERATLSCKASKRVTTYVSWYQQKPGQAPRLLIYGASNRYLGIPARFSGSGSGTDFTLTISSLEPEDFAVYYCSQSYNYPYTFGQGTKLEIK
IC50 (CGRP antigen [4]): 0.0613 µg/mL | IC50 (CGRP antigen [5]): 0.0563 µg/mL | IC50 (CGRP antigen [6]): 0.0847 µg/mL | Relative binding activity (%) vs Ref(Teva) (CGRP antigen [6]): 100%

B4: Fremanezumab Analogue (antibody, INN chains, looked up, V domains shown)
VH: EVQLVESGGGLVQPGGSLRLSCAASGFTFSNYWISWVRQAPGKGLEWVAEIRSESDASATHYAEAVKGRFTISRDNAKNSLYLQMNSLRAEDTAVYYCLAYFDYGLAIQNYWGQGTLVTVSS
VL: EIVLTQSPATLSLSPGERATLSCKASKRVTTYVSWYQQKPGQAPRLLIYGASNRYLGIPARFSGSGSGTDFTLTISSLEPEDFAVYYCSQSYNYPYTFGQGTKLEIK
modifications: in-house analogue
Binding signal (nm) [1]: 0.1 nm | koff [1]: < 1e-05 s⁻¹ | Binding signal (nm) [2]: 0.12 nm | koff [2]: < 1e-05 s⁻¹ | Binding signal (nm) [3]: 0.08 nm | koff [3]: 5.1e-05 s⁻¹
